The source of these data is patent US6884600B1, “Protein phosphatase-1 catalytic subunit interactions” (Medical Research Council London, priority 1996, dated 2005).

In data set [1] the target is T1, PP1c (Oryctolagus cuniculus, UniProt P62143).
T1 construct: from tissue; host or cells: rabbit skeletal muscle (PP1G dissociated with LiBr)
As to the kind of experiment: Phosphorylase phosphatase activity of PP1c. The format is biochemical, rabbit. How it is done: (§1) A,B; Effects of M110-(M1-E309) (closed circles), M110-(M1-F38) (open circles) and M110-(D39-E309) (open triangles) on the MLC20 phosphatase […] and phosphorylase phosphatase (B) activities of PP1c were measured after incubating PP1c for 15 minutes at 30° C. with each fragment. The results are presented as a percentage of those obtained in experiments where the M110 fragments were omitted.
(§2) C,D; The effect of M110-(M1-A150) (open circles) and M110-(L24-Y496) (closed circles) on the MLC20 phosphatase (C) and phosphorylase phosphatase (D) activities of PP1c were measured as in A,B.
(B) The phosphorylase phosphatase activity of PP1c was assayed as in A in the presence or absence of 1 μM GM-(G63-T93) and 1.0 nM M110-(M1-E309). The results are presented (SEM for three experiments) as a percentage of the PP1c activity measured in the absence of GM-(63-T93), M110-(M1-F38) or M110-(M1-E309).
(§3) The myosin-associated form of PP1 (PP1M) was from chicken gizzard and the glycogen-associated form of PP1 (PP1G) from rabbit skeletal muscle. The β isoform of PP1c was released from PP1G by incubation for 2 hours in 2M LiBr, then purified by gel-filtration on a 30×1 cm column of Superose 12 (Pharmacia, Milton Keynes, U.K.) in the presence of 0.5M LiBr. Glycogen protein particles from rat liver were used as the source of hepatic PP1G Digoxygenin-labelled PP1c (γ1-isoform, hereafter termed PP1) was prepared as in [9]. GL was expressed in E. coli as a glutathione-S-transferase (GST) fusion protein [7], termed GST-GL. The catalytic subunit of PP2A from bovine heart (PP2AC) was provided by Dr R. MacKintosh in this Unit. The phosphorylatable myosin light chain (MLC20) and heavy meromyosin from chicken gizzard were a gift from Dr M. Ikebe (Case Western Reserve University, Cleveland, USA). Thrombin and benzamidine-Agarose were purchased from Sigma (Poole, UK).
(§4) ^32P-labelled rabbit skeletal muscle phosphorylase a (containing 1.0 mol phosphate per mol subunit) was prepared by phosphorylation with phosphorylase kinase, ^32P-labelled rabbit skeletal muscle glycogen synthase (containing 1.5 mol/mol subunit in the sites 3 region) was prepared by phosphorylation with glycogen synthase kinase-3 [24]). ^32P-labelled chicken gizzard MLC20 and ^32P-labelled chicken gizzard heavy meromyosin (containing 1.0 mol phosphate per mol subunit) were prepared by phosphorylation with smooth muscle myosin light chain kinase. The dephosphorylation of phosphorylase a (10 μM), glycogen synthase (1 μM) and MLC20 (1 μM) and heavy meromyosin (1 μM) was carried out as in [24]. One unit of activity (U) was that amount which released […] of phosphate in one minute.
(§5) PP1c was isolated from the rabbit skeletal muscle PP1-GM complex as described previously (Johnson et al, 1996). Glycogen particles isolated from rat liver (Schelling el al, 1988) served as the source of PP1-GL. The dephosphorylation of glycogen phosphorylase (10 μM) and the isolated MLC20 of smooth muscle myosin (1 μM) by PP1c was carried out as described previously (Cohen et al., 1988; Alessi et al., 1992).

For data set [2], the target named is T1, PP1c. Kind of data set: MLC20 (myosin P-light chain) phosphatase activity of PP1c. The format is biochemical. Here is the method:
as §1, §2
(A) The MLC20 phosphatase activity of PP1c was assayed after incubation for 15 minutes at 30° C. in the presence or absence of 1 μM GM-(G63-T93) and either 0.1 μM M110-(M1-F38) or 0.1 nM M110-(M1-E309).
(1-38, open circles) or M110[M1-K35] (1-35, closed circles) were incubated with PP1c for 15 min at 30° C. and reactions started with the ^32P-labelled MLC20 substrate. The results are expressed as a % of the activity determined in control incubations where the M110 peptides were omitted (100%). Similar results were obtained in three separate experiments.
as §3, §4, §5
^32P-labelled myosin P-light chains containing 1.0 mol phosphate per mol subunit was prepared by phosphorylation with smooth muscle myosin light chain kinase. The dephosphorylation of myosin P-light chain (1 μM) was carried out as in [4] and one unit of activity (U) was that amount which catalysed the release of 1 μmole of phosphate in one min. When assaying PP1M in immunoprecipitates from the myofibrillar extracts, the tubes were shaken continuously and 3 nM okadaic acid was included to inhibit any PP2A present.

The subject of a further data set is PP1GL. As to the kind of experiment: Phosphorylase phosphatase activity of PP1GL (hepatic glycogen particles). To be noted: hepatic glycogen particles containing PP1-GL. The format is biochemical, rat. Here is the method: Hepatic glycogen particles were diluted in assay buffer to 0.6 phosphorylase phosphatase (PhP) mU per ml, incubated for 15 minutes at 30° C. with GM-(G63-T93) (closed circles), GM-(G63-K80) (open circles) or GM-(G63-N75) (closed triangles) and assayed as described in Example 1. The open triangles show the effect of GM-(G63-N75) which had been phosphorylated at Ser67 by PKA (pGM-(G63-N75)). Similar results were obtained in four experiments.
(A) Hepatic glycogen protein particles containing PP1-GL were diluted and incubated for 15 min at 30° C. with the indicated concentrations of either M110[M1-F38] (open circles) or M110[M1-K35] (closed circles) and the phosphatase reactions were initiated by addition of ^32P-labelled glycogen phosphorylase. The results are expressed as a percentage of the activity determined in control incubations where the M110 peptides were omitted. Similar results were obtained in three separate experiments. (B) The experiment was carried out as in (A), except that the peptide GM[G63-N75] (“wild type”, WT) and variants in which either Val 66 (V66A) (closed triangles) or Phe 68 (F68A) (closed circles) were changed to Ala, were used instead of the M110 peptides. Similar results were obtained in three separate experiments.
The myosin-associated form of PP1 (PP1M) was from chicken gizzard and the glycogen-associated form of PP1 (PP1G) from rabbit skeletal muscle. […]

For another data set, the target named is PP1. The settings on record: Beullens et al., 1992; read-out: inhibitory constant for PP1; cited from earlier work.

Like-named read-outs stand apart in the source and are kept apart here.

T1 sequence (P62143 whole entry): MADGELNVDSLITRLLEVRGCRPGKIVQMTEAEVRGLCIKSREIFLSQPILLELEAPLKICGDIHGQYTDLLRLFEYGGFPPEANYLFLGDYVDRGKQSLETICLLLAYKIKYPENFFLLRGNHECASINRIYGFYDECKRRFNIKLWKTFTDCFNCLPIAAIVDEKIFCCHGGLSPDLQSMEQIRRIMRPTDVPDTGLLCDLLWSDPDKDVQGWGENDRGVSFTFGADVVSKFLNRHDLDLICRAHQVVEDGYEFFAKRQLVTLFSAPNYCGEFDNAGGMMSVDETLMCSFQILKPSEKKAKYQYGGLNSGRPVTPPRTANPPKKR

B1: M110-(D39-E309): rat aorta M110 fragment, residues 39-309, containing the seven ankyrin repeats (protein, UniProt Q10728 39-309, looked up, fragment)
chain: DDGAVFLAACSSGDTDEVLKLLHRGADINYANVDGLTALHQACIDDNVDMVKFLVENGANINQPDNEGWIPLHAAASCGYLDIAEFLIGQGAHVGAVNSEGDTPLDIAEEEAMEELLQNEVNRQGVDIEAARKEEERIMLRDARQWLNSGHISDVRHAKSGGTALHVAAAKGYTEVLKLLIQAGYDVNIKDYDGWTPLHAAAHWGKEEACRILVDNLCDMETVNKVGQTAFDVADEDILGYLEELQKKQNLLHSEKRDKKSPLIESTANME
For B1, the “effect on the phosphorylase phosphatase activity of PP1c” value with PP1c [1] was “did not inhibit the phosphorylase phosphatase activity of PP1c”; with PP1c [1] (each peptide individually, at concentrations up to 1 μM), “no effect”. Also, the “effect on the MLC20 phosphatase activity of PP1c” value with PP1c [2] is “failed to stimulate the MLC20 phosphatase activity of PP1c”. Further, the “effect on the phosphorylase phosphatase activity of PP1GL” value in the data set with PP1GL is reported as “can enhance the phosphorylase activity of PP1GL”.

B2: NIPP-1: nuclear inhibitor of PP1 (protein, UniProt Q12972 1-351, looked up)
Nuclear inhibitor of protein …: MAAAANSGSSLPLFDCPTWAGKPPPGLHLDVVKGDKLIEKLIIDEKKYYLFGRNPDLCDFTIDHQSCSRVHAALVYHKHLKRVFLIDLNSTHGTFLGHIRLEPHKPQQIPIDSTVSFGASTRAYTLREKPQTLPSAVKGDEKMGGEDDELKGLLGLPEEETELDNLTEFNTAHNKRISTLTIEEGNLDIQRPKRKRKNSRVTFSEDDEIINPEDVDPSVGRFRNMVQTAVVPVKKKRVEGPGSLGLEESGSRRMQNFAFSGGLYGGLPPTHSEAGSQPHGIHGTALIGGLPMPYPNLAPDVDLTPVVPSAVNMNPAPNPAVYNPEAVNEPKKKKYAKEAWPGKKPTPSLLI
With B2, on PP1, the Ki is 1 pM.
